Data as given in patent US11957748B2, “Vaccine to pathogenic immune activation cells during infections” (priority 2019, dated 2024).

What follows are sequences tested against T1, HLA-E (HLA-E*01033-transfected K562) (Homo sapiens, UniProt P13747) (assay: Peptide-HLA molecule binding assay (HLA-E stabilization)). Details: HLA-E Transfected K562 pulsed overnight at 26° C.
T1 construct: expressed in transfected cells; host or cells: K562 (K562/HLA-E, kept under G-418 selection)
Procedure: Peptide binding was assessed by HLA-E stabilization assays using HLA-E*01033-transfected derivative of K562 (K562/HLA-E) cell lines. Briefly, cells were re-suspended in serum-free medium at 1×10^6 cells/ml. Where appropriate, a peptide (see Table 1) was added. After overnight incubation at 26° C., cells were washed with PBS to remove free peptides. Next, HLA surface expression was monitored after staining with anti-HLA-E mAb. Analysis was done on a FACScalibur cytometer (BD Biosciences). Results are presented as the MFI of cells stained with anti-HLA-E mAb.

RMYSPVSIL (MHCIb/E-binding antigen) was tested. Which “MFI (HLA-E surface expression, anti-HLA-E mAb)” value (shortened to “MFI”) did it give?
Its value is 8240.

With “PEIVIYDYM (HIV-1 Pol derived peptide; MHCIb/E-binding antigen)” as the sequence, how does the “MFI” value read?
The value was 7320.

Which “MFI” value does the source give for “VMATRRNVL (MBt derived peptide) [reference compound]” here?
The value was 7523.

How did the “MFI” value turn out when “RIRTWKSLV (HIV-1 Pol derived peptide; MHCIb/E-binding antigen)” was run?
The value was 6580.

TALSEGATP (MHCIb/E-binding antigen) was tested. Which “MFI” value did it give?
The value was 8530.
